Changes are numbered by the printed parent chain.
B1: pre-let-7g (structured_RNA)
RNA: UGAGGUAGUAGUUUGUACAGUUUGAGGGUCUAUGAUACCACCCGGUACAGGAGAUAACUGUACAGGCCACUGCCUUGC
B2: pre-let-7g_3'CY (structured_RNA)
RNA: B1 RNA

Columns and labels:
[1] = target: T1, TUT4 (ZCCHC11);LIN28A (Homo sapiens;Homo sapiens, UniProt Q5TAX3;Q9H9Z2 254-1315;1-209, |); assay: cryo-EM; Zn2+; ternary capture state, 3.68 A; EMSA: 20 mM HEPES pH 7.8, 100 mM NaCl, 2 mM CaCl2, 50 uM ZnCl2, 5% glycerol, 5 mM DTT, 0.5 mM UTP, RNase inhibitor, on ice 30 min; 0.1 uM RNA, 0.2 uM TUT, 0.3 uM LIN28A; native gel in 1x TBE at 4 C; conditions: protein: recombinant;recombinant; tags: N-term His6-GST (TEV cleavable), C-term twin-Strep;N-term His6-GST fusion; copies: 1;1; hairpin, 1 nt 3' overhang
T1 sequence 1: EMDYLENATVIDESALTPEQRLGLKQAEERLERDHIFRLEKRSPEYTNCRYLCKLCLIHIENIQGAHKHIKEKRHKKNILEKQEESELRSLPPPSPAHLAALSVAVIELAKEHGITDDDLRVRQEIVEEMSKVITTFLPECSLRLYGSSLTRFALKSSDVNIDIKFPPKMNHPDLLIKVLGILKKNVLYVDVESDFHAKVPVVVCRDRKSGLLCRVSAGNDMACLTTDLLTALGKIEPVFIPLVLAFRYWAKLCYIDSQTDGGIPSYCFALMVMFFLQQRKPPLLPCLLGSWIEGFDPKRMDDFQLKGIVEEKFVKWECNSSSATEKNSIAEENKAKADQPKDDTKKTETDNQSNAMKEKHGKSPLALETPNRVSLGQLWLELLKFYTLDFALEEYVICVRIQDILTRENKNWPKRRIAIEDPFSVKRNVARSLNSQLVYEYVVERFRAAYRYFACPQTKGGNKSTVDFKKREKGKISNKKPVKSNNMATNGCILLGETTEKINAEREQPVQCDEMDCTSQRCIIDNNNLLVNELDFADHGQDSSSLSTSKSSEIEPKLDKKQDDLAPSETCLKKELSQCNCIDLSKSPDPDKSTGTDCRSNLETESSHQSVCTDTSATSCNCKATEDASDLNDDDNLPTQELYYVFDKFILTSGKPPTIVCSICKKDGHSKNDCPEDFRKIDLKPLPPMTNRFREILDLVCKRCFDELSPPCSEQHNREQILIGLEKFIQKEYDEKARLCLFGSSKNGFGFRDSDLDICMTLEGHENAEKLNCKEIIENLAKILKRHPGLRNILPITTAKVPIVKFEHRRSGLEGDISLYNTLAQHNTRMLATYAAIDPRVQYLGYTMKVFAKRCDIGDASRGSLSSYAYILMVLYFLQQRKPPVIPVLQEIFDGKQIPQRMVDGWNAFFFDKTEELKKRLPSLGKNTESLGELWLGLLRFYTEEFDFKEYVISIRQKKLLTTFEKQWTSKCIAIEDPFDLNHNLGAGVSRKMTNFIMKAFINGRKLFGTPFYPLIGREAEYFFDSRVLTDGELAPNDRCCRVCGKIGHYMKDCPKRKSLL
T1 sequence 2: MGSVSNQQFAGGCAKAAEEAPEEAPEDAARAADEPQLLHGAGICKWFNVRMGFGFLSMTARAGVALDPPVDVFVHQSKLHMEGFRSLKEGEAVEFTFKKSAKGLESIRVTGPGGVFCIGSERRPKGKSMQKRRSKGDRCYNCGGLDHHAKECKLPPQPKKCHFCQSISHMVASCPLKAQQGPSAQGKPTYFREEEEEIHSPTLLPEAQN

[2] = target: TUT7 (ZCCHC6);LIN28A (Homo sapiens;Homo sapiens, UniProt Q5VYS8;Q9H9Z2 1-1495;1-209, |); assay: cryo-EM; Zn2+; ternary conformation I, 3.81 A; EMSA: 20 mM HEPES pH 7.8, 100 mM NaCl, 2 mM CaCl2, 50 uM ZnCl2, 5% glycerol, 5 mM DTT, 0.5 mM UTP, RNase inhibitor, on ice 30 min; 0.1 uM RNA, 0.2 uM TUT, 0.3 uM LIN28A; native gel in 1x TBE at 4 C; conditions: protein: recombinant;recombinant; tags: N-term His6-GST (TEV cleavable), C-term twin-Strep;N-term His6-GST fusion; copies: 1;1; hairpin, 1 nt 3' overhang
Sequence of TUT7 (ZCCHC6);LIN28A (Q5VYS8 whole entry, the tested form may be a part, one chain of several): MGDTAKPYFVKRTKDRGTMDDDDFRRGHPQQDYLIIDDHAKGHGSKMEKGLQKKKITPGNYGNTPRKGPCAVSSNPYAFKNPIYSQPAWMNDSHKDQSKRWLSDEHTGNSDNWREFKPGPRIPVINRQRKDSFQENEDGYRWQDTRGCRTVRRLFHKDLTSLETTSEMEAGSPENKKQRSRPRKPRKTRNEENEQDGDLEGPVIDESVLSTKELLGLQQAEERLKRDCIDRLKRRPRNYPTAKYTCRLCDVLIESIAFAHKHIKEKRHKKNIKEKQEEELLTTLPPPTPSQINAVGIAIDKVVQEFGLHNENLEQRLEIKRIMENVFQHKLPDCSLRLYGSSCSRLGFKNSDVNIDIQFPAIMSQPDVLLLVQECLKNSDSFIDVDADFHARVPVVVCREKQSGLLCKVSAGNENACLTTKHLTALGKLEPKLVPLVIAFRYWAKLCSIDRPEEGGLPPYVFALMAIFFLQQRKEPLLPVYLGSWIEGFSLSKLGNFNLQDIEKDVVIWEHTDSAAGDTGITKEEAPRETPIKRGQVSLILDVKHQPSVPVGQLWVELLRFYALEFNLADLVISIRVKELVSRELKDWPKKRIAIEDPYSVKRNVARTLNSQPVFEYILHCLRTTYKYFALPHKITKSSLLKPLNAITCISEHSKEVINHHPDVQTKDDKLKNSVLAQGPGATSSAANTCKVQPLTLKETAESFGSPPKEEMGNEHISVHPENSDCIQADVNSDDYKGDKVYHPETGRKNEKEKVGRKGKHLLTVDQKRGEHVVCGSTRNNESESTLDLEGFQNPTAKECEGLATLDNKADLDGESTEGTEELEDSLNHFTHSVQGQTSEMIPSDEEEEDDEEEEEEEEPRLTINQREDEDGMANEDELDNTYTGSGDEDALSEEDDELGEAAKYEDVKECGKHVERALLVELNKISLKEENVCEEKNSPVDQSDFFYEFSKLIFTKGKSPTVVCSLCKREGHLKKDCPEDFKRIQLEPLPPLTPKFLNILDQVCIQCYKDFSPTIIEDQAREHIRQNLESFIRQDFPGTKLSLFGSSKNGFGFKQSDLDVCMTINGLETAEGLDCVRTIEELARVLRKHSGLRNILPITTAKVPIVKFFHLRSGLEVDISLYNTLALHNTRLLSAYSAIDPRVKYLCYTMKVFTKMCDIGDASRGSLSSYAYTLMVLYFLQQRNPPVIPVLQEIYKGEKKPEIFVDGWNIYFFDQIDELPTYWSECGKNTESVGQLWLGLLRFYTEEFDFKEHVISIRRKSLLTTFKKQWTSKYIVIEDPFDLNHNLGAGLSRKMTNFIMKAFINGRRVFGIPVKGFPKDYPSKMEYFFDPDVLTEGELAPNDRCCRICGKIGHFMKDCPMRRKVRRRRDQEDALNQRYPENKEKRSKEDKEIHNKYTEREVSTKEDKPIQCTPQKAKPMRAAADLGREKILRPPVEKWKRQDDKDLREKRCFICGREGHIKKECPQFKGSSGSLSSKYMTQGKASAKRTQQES

[3] = target: T2, TUT4 K919/K920 mutant (ZK1);LIN28A (Homo sapiens;Homo sapiens, UniProt Q5TAX3;Q9H9Z2 254-1315;1-209, K919A;K920A|); assay: EMSA; 0.5 mM UTP, Ca2+, Zn2+; higher-order assemblies seen; EMSA: 20 mM HEPES pH 7.8, 100 mM NaCl, 2 mM CaCl2, 50 uM ZnCl2, 5% glycerol, 5 mM DTT, 0.5 mM UTP, RNase inhibitor, on ice 30 min; 0.1 uM RNA, 0.2 uM TUT, 0.3 uM LIN28A; native gel in 1x TBE at 4 C; conditions: protein: recombinant;recombinant; tags: N-term His6-GST (TEV cleavable), C-term twin-Strep;N-term His6-GST fusion; copies: 1;1; label: 3' CY dye; hairpin, 1 nt 3' overhang
T2 sequence 1: T1 sequence 1 with K666A, K667A
T2 sequence 2: T1 sequence 2

[4] = target: T1, TUT4 (ZCCHC11);LIN28A; assay: EMSA; 0.5 mM UTP, Ca2+, Zn2+; higher-order assemblies, concentration dependent; EMSA: 20 mM HEPES pH 7.8, 100 mM NaCl, 2 mM CaCl2, 50 uM ZnCl2, 5% glycerol, 5 mM DTT, 0.5 mM UTP, RNase inhibitor, on ice 30 min; 0.1 uM RNA, 0.2 uM TUT, 0.3 uM LIN28A; native gel in 1x TBE at 4 C; conditions: protein: recombinant;recombinant; tags: N-term His6-GST (TEV cleavable), C-term twin-Strep;N-term His6-GST fusion; copies: 1;1; label: 3' CY dye; hairpin, 1 nt 3' overhang

| Binder | binding result [1] | binding result [2] | binding result [3] | binding result [4] |
| --- | --- | --- | --- | --- |
| B1 | binds | binds | – | – |
| B2 | – | – | binds | binds |

Reference: paper PMC11402785, “Structural basis for activity switching in polymerases determining the fate of let-7 pre-miRNAs” (Nature Structural & Molecular Biology, 2024)
